For data set [1], the target named is T1, Rv0081-S/Q-A S48A;S49A;S52A;Q53A (Mycobacterium tuberculosis) (UniProt P9WMI7).
T1 sequence: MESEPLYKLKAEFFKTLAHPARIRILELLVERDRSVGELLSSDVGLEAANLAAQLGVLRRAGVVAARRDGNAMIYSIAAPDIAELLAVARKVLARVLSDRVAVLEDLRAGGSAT
In words: SPR. A general note: Surface plasmon resonance follows binding to a sensor surface in real time, without labels.

The data set “SEC-MALS” concerns the molecule itself. As to the kind of experiment: SEC-MALS.

Residue numbers refer to the chain shown, from its start.

Here are results for two molecules from publication doi:10.1101/465575 (bioRxiv, 2018).

As usually defined, the Kd is a measure of binding affinity in units of concentration. Low readings indicate higher affinity, high ones lower affinity. A word on the stoichiometry N: it is a count of units in the complex or per binding partner.

“ATCCGCACTATCTGATAAATTCTTCAACTCGTC (double strand) [ds-Wt]” returned a Kd in data set [1] of 19.6 µM.

B1: Rv0081 transcription factor of Mycobacterium tuberculosis (natural protein)
chain: T1 sequence with A48S, A49S, A52S, A53Q
Turning to B1, in the data set “SEC-MALS”, the “stoichiometry N” value was found to be 2.
